# Results taken from patent US5587468.
# pKd: −log10 of the molar value.
# Target: HIV-1 integrase (Human immunodeficiency virus 1 (BH10)) (UniProt P03366)
# Assay: FP filter
# [1] = 50 mM NaCl, stated about same Kd as 30N RNA
# [2] = nitrocellulose filter, 250 mM NaCl, printed as 20x10^-6, data not shown
substance,measurement,setting,value
U5 21-mer ds,pKd,[1],7.60
same,pKd,[2],< 4.70
U5 21-mer ss,pKd,[1],7.60
same,pKd,[2],< 4.70
